T1: human α-CGRP 1-37 (WT) (human, C-terminal amide; N-terminal biotin when captured on the SA chip; 125I-labelled in the radioligand assay)
T1 construct: also called α-human
T1 peptide: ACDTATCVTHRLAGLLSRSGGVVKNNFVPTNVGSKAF

T2: rat α-CGRP (1-37) (rat, C-terminal amide; N-terminal biotin when captured on the SA chip)
T2 construct: also called rat α (1-37); α-rat
T2 peptide: T1 peptide with A1S, D3N, N25D, K35E

B1: G1 variant M1 Fab (Fab, V domains shown)
VH: EVQLVESGGGLVQPGGSLRLSCAASGFTFSNYWISWVRQAPGKGLEWVAEIRSESDASATHYAEAVKGRFTISRDNAKNSLYLQMNSLRAEDTAVYYCLLYFDYGLAIQNYWGQGTLVTVSS
VL: EIVLTQSPATLSLSPGERATLSCKASKRVTTYVSWYQQKPGQAPRLLIYGASNRYLGIPARFSGSGSGTDFTLTISSLEPEDFAVYYCSQSYNYPYTFGQGTKLEIK
notes: Fab; constant domains as m1
B2: G1 variant M4 Fab (Fab, V domains shown)
VH: B1 VH with L99A, L100V
VL: B1 VL
notes: Fab; constant domains as m1
B3: G1 variant M14 Fab (Fab, V domains shown)
VH: B1 VH with L99T, L100K
VL: B1 VL
notes: Fab; constant domains as m1
B4: G1 variant M21 Fab (Fab, V domains shown)
VH: B1 VH with L99S, L100A
VL: B1 VL with R28W
notes: Fab; constant domains as m1
B5: G1 variant M17 Fab (Fab, V domains shown)
VH: B1 VH with L99T, L100V
VL: B1 VL
notes: Fab; constant domains as m1
B6: G1 variant M3 Fab (Fab, V domains shown)
VH: B1 VH with L99A, L100S
VL: B1 VL
notes: Fab; constant domains as m1
B7: G1 variant M15 Fab (Fab, V domains shown)
VH: B1 VH with L99T, L100P
VL: B1 VL
notes: Fab; constant domains as m1
B8: G1 variant M11 Fab (Fab, V domains shown)
VH: B1 VH with L99S, L100T
VL: B1 VL
notes: Fab; constant domains as m1
B9: G1 variant M13 Fab (Fab, V domains shown)
VH: B1 VH with L99T, L100G
VL: B1 VL
notes: Fab; constant domains as m1
B10: G1 variant M5 Fab (Fab, V domains shown)
VH: B1 VH with L99A, L100Y
VL: B1 VL
notes: Fab; constant domains as m1
B11: G1 variant M22 Fab (Fab, V domains shown)
VH: B1 VH with L99T, L100A
VL: B1 VL with R28W
notes: Fab; constant domains as m1
B12: G1 variant M8 Fab (Fab, V domains shown)
VH: B1 VH with L99N, L100G
VL: B1 VL
notes: Fab; constant domains as m1
B13: G1 variant M18 Fab (Fab, V domains shown)
VH: B1 VH with L99V, L100G
VL: B1 VL
notes: Fab; constant domains as m1
B14: G1 variant M20 Fab (Fab, V domains shown)
VH: B1 VH with L99R
VL: B1 VL with R28W
notes: Fab; constant domains as m1
B15: G1 variant M10 Fab (Fab, V domains shown)
VH: B1 VH with L99S, L100S
VL: B1 VL
notes: Fab; constant domains as m1
B16: G1 variant M19 Fab (Fab, V domains shown)
VH: B1 VH with L99V, L100R
VL: B1 VL
notes: Fab; constant domains as m1
B17: G1 variant M6 Fab (Fab, V domains shown)
VH: B1 VH with L99N, L100A
VL: B1 VL
notes: Fab; constant domains as m1
B18: G1 variant M12 Fab (Fab, V domains shown)
VH: B1 VH with L99S, L100V
VL: B1 VL
notes: Fab; constant domains as m1
B19: G1 variant M2 Fab (Fab, V domains shown)
VH: B1 VH with L99A, L100R
VL: B1 VL
notes: Fab; constant domains as m1
B20: G1 variant M7 Fab (Fab, V domains shown)
VH: B1 VH with L99N, L100C
VL: B1 VL
notes: Fab; constant domains as m1
B21: G1 variant M9 Fab (Fab, V domains shown)
VH: B1 VH with L99N, L100Y
VL: B1 VL
notes: Fab; constant domains as m1
B22: G1 variant M16 Fab (Fab, V domains shown)
VH: B1 VH with L99T, L100S
VL: B1 VL
notes: Fab; constant domains as m1

Positions count from the first letter of the chain named.

By koff is commonly meant a measure of how fast the partners let go of each other. Usually Kd stands for the equilibrium constant for the complex coming apart. The low end stands for a tighter complex, the high end for a looser complex.

One test concerns the target T1, human α-CGRP 1-37 (WT). Kind of test: Biacore, 37°C, Fab over CGRP on SA chip. The protocol: (§1) Biacore assay for affinity determination. […] All Biacore assays were conducted in HBS-EP running buffer (10 mM HEPES pH 7.4, 150 mM NaCl, 3 mM EDTA, 0.005% v/v polysorbate P20). CGRP surfaces were prepared by diluting the N-biotinylated CGRP to a concentration of less than 0.001 mg/mL into HBS-EP buffer and injecting it across the SA sensor chip using variable contact times. […] Samples were typically injected for 1 minute at 100 μL/min and dissociation times of at least 10 minutes were allowed. […] An entire titration series (typically generated in duplicate) was fit globally to a 1:1 Langmuir binding model using the BIAevaluation program. This returned a unique pair of association and dissociation kinetic rate constants (respectively, kₒₙ and koff) for each binding interaction, whose ratio gave the equilibrium dissociation constant (KD=koff/kₒₙ). […]
For orientation: Surface plasmon resonance follows binding to a sensor surface in real time, without labels.
On to B1, for which the koff worked out at 0.000173 s⁻¹.
In turn, B2 registered a Kd of 0.43 nM and a koff of 6.95e-05 s⁻¹.
On the same counts, the results for B3 are ≤ 0.06 nM and ≤ 1e-05 s⁻¹.
On the same counts, the results for B4 are 1.23 nM and 0.000142 s⁻¹.
The like results for B5 were, in that order, 1.16 nM and 0.000185 s⁻¹.
For B6, the Kd worked out at 1.7 nM and the koff stood at 0.00021 s⁻¹.
On the same counts, the results for B7 are 0.1 nM and 1.58e-05 s⁻¹.
Molecule B8 gave a Kd of 1.77 nM and a koff of 0.000283 s⁻¹.
On the same counts, the results for B9 are 1.16 nM and 0.000186 s⁻¹.
On the same counts, the results for B10 are 0.2 nM and 3.22e-05 s⁻¹.
The like results for B11 were, in that order, 0.73 nM and 0.000116 s⁻¹.
The molecule B12 displayed a Kd of 0.58 nM and a koff of 9.2e-05 s⁻¹.
On the same counts, the results for B13 are 0.44 nM and 7.03e-05 s⁻¹.
Molecule B14 gave a Kd of 0.85 nM and a koff of 0.000136 s⁻¹.
On the same counts, the results for B15 are 1.08 nM and 0.000173 s⁻¹.
On the same counts, the results for B16 are ≤ 0.06 nM and ≤ 1e-05 s⁻¹.
The like results for B17 were, in that order, 0.83 nM and 0.000133 s⁻¹.
In turn, B18 came in with a Kd of 0.63 nM and a koff of 0.000101 s⁻¹.
On the same counts, the results for B19 are 3 nM and 0.00031 s⁻¹.
As for B20, the Kd was determined as 1.52 nM and the koff came to 0.000243 s⁻¹.
The like results for B21 were, in that order, ≤ 0.06 nM and ≤ 1e-05 s⁻¹.
On the same counts, the results for B22 are 1.03 nM and 0.000165 s⁻¹.

A further test deals with T2, rat α-CGRP (1-37). Kind of test: Biacore, 37°C, Fab over CGRP on SA chip. The protocol: as §1
B1 returned a koff of 0.0011 s⁻¹.
B2 displayed a Kd of 84.4 nM and a koff of 0.00152 s⁻¹.
In turn, B4 displayed a Kd of 15.2 nM and a dissociation rate constant (koff) of 0.000695 s⁻¹.
On the same counts, the results for B5 are 114 nM and 0.00206 s⁻¹.
On the same counts, the results for B6 are 61 nM and 0.002 s⁻¹.
B7 came in with a Kd of 63.9 nM and a koff of 0.00115 s⁻¹.
The like results for B8 were, in that order, 268 nM and 0.00483 s⁻¹.
On the same counts, the results for B9 are 102 nM and 0.00184 s⁻¹.
The like results for B10 were, in that order, 40.8 nM and 0.000735 s⁻¹.
Turning to B11, the affinity, expressed as Kd, was 61.1 nM and the koff amounted to 0.0011 s⁻¹.
On the same counts, the results for B12 are 41.4 nM and 0.000745 s⁻¹.
The like results for B13 were, in that order, 67.8 nM and 0.00122 s⁻¹.
As to B14, the Kd amounted to 80 nM and the koff was found to be 0.00144 s⁻¹.
Regarding B15, the Kd is 83.9 nM and the koff is 0.00151 s⁻¹.
The like results for B17 were, in that order, 43.6 nM and 0.000784 s⁻¹.
The like results for B18 were, in that order, 108 nM and 0.00194 s⁻¹.
The like results for B19 were, in that order, 58 nM and 0.0026 s⁻¹.
As for B20, the Kd turned out to be 51 nM and the koff turned out to be 0.000918 s⁻¹.
The like results for B22 were, in that order, 55.3 nM and 0.000996 s⁻¹.

The values above are taken from patent US20190071490A1 (BETH ISRAEL DEACONESS MEDICAL CENTER, published 2019).
